5 molecules from paper doi:10.1101/2021.12.01.470705 (bioRxiv, 2021) can be followed below.

Assay [1] concerns the target WWOX tandem WW1-WW2 domains (amino acid 16-91) (human) (UniProt Q9NZC7). The assay can be described thus: ITC. On the technique in general: In ITC the heat of successive injections is recorded.
The target is the same in assay [2]. Kind of assay: NMR titration.
Assay [3] has as its target T1, WWOX tandem WW1-WW2 domains (amino acid 16-91) (human, UniProt Q9NZC7 16-91).
T1 sequence (looked up): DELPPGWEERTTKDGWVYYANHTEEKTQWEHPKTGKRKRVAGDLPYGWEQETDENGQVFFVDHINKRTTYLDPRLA
Kind of assay: ITC.

Assay [4] addresses T2, WWOX WW2 domain (amino acid 57-91) (human, UniProt Q9NZC7 57-91).
T2 chain (looked up): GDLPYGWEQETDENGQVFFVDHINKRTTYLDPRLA
Kind of assay: ITC.

Assay [5] has as its target T3, WWOX WW1 domain (amino acid 16-50) (human, UniProt Q9NZC7 16-50).
T3 chain (looked up): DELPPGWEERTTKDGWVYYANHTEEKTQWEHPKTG
The assay can be described thus: ITC.

In the case of “PY3AY3, PY3PY3 peptide with PP-to-AA mutations in the C-terminal motif”, the Kd in assay [1] amounted to 27 µM.

In turn, ErbB4 single-motif peptide PY2 displayed an equilibrium dissociation constant (Kd) in assay [1] of more than 100 µM.

In assay [1], “ErbB4 double-motif peptide PY1PY2 (natural linker)” came in with a Kd of 14 µM. Further, the apparent KD, WW2 site in assay [2] worked out at 1000 µM.

Molecule ErbB4 single-motif peptide PY1 displayed a Kd in assay [1] of more than 100 µM.

Turning to KPGTVLPPPPYRHRN (peptide, UniProt Q15303 1291-1305, looked up) [ErbB4 1291-1305 (PY3) single-motif peptide], the dissociation constant Kd in assay [3] was 30 µM; in assay [4], more than 200 µM; in assay [5] it was 78 µM.

As usually defined, the Kd is the concentration at which binding is half-saturated.
